# Assay results as given in IntAct's records for PubMed 9605924.
# B1: Thyroid hormone receptor beta (Homo sapiens), P10828-1 (parent)
# chain: MTPNSMTENGLTAWDKPKHCPDREHDWKLVGMSEACLHRKSHSERRSTLKNEQSSPHLIQTTWTSSIFHLDHDDVNDQSVSSAQTFQTEEKKCKGYIPSYLDKDELCVVCGDKATGYHYRCITCEGCKGFFRRTIQKNLHPSYSCKYEGKCVIDKVTRNQCQECRFKKCIYVGMATDLVLDDSKRLAKRKLIEENREKRRREELQKSIGHKPEPTDEEWELIKTVTEAHVATNAQGSHWKQKRKFLPEDIGQAPIVNAPEGGKVDLEAFSHFTKIITPAITRVVDFAKKLPMFCELPCEDQIILLKGCCMEIMSLRAAVRYDPESETLTLNGEMAVTRGQLKNGGLGVVSDAIFDLGMSLSSFNLDDTEVALLQAVLLMSSDRPGLACVERIEKYQDSFLLAFEHYINYRKHHVTHFWPKLLMKVTDLRMIGACHASRFLHMKVECPTELFPPLFLEVFED
# Columns and labels:
# [1] = variants of: B1; settings: with ncor2_human NCOR2, Q9Y618
# ncor2_human NCOR2, Q9Y618, sequence (Q9Y618 whole entry): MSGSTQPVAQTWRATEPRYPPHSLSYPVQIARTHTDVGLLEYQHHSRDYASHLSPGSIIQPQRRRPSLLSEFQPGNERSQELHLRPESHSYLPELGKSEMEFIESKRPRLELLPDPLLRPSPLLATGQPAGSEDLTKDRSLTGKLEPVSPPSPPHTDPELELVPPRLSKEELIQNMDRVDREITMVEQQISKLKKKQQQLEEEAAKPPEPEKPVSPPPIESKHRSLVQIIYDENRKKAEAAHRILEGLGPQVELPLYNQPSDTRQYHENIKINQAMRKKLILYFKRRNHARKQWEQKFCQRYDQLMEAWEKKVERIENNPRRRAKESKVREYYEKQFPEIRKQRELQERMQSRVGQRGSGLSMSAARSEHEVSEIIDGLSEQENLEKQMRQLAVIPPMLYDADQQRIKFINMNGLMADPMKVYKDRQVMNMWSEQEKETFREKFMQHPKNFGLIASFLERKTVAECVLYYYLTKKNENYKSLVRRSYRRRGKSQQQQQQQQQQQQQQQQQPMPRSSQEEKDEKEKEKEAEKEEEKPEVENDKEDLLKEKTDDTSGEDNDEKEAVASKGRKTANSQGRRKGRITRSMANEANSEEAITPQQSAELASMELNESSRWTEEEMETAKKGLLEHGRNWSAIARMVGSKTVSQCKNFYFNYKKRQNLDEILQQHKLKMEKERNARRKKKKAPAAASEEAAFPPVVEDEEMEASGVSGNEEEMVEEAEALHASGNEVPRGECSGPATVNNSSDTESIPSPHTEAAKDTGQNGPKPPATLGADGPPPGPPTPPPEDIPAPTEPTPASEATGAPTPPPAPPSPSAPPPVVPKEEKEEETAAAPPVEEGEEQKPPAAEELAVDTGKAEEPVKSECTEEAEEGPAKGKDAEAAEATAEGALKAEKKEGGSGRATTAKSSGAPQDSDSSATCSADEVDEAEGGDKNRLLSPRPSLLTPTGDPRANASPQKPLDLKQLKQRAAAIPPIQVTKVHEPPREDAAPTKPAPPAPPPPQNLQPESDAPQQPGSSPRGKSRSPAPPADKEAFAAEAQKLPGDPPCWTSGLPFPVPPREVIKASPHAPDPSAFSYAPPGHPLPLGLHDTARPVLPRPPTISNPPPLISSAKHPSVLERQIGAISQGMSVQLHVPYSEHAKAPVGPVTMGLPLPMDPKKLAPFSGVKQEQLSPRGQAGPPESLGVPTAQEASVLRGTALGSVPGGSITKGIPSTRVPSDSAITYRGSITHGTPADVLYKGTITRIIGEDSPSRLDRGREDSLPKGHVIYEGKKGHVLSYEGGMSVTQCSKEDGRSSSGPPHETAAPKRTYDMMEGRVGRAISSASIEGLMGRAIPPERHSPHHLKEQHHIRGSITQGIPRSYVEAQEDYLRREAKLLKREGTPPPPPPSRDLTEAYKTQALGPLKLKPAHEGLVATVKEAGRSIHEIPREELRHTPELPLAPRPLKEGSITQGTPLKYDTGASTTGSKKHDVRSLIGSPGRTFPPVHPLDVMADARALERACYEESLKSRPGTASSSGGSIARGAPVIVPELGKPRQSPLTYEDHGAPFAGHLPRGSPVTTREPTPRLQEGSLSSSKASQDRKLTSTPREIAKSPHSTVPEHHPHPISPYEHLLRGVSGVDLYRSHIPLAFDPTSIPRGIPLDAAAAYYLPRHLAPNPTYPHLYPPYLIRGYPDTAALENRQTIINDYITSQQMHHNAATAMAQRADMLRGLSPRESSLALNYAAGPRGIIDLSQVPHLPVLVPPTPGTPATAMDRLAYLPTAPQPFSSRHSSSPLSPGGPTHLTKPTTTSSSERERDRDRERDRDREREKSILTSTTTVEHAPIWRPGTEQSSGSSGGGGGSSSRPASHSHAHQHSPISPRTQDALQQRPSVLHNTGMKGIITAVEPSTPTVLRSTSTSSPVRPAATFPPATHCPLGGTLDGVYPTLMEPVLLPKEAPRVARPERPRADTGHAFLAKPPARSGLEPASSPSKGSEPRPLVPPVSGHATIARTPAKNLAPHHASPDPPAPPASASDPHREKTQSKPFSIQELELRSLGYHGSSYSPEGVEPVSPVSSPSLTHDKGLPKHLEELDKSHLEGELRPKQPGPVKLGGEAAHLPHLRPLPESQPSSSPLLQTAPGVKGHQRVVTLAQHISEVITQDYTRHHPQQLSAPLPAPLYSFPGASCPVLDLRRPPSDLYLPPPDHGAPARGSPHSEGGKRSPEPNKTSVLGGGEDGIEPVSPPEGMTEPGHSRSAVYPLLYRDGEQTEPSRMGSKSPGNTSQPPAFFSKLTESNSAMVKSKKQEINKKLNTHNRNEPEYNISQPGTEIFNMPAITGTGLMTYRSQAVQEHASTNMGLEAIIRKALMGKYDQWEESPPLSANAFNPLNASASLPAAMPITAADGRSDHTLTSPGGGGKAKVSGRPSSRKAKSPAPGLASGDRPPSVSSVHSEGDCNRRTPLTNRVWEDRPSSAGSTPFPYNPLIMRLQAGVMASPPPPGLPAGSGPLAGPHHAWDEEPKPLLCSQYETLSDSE
# [2] = variants of: B1; settings: with ncoa1_human NCOA1, Q15788
# ncoa1_human NCOA1, Q15788, sequence (Q15788 whole entry): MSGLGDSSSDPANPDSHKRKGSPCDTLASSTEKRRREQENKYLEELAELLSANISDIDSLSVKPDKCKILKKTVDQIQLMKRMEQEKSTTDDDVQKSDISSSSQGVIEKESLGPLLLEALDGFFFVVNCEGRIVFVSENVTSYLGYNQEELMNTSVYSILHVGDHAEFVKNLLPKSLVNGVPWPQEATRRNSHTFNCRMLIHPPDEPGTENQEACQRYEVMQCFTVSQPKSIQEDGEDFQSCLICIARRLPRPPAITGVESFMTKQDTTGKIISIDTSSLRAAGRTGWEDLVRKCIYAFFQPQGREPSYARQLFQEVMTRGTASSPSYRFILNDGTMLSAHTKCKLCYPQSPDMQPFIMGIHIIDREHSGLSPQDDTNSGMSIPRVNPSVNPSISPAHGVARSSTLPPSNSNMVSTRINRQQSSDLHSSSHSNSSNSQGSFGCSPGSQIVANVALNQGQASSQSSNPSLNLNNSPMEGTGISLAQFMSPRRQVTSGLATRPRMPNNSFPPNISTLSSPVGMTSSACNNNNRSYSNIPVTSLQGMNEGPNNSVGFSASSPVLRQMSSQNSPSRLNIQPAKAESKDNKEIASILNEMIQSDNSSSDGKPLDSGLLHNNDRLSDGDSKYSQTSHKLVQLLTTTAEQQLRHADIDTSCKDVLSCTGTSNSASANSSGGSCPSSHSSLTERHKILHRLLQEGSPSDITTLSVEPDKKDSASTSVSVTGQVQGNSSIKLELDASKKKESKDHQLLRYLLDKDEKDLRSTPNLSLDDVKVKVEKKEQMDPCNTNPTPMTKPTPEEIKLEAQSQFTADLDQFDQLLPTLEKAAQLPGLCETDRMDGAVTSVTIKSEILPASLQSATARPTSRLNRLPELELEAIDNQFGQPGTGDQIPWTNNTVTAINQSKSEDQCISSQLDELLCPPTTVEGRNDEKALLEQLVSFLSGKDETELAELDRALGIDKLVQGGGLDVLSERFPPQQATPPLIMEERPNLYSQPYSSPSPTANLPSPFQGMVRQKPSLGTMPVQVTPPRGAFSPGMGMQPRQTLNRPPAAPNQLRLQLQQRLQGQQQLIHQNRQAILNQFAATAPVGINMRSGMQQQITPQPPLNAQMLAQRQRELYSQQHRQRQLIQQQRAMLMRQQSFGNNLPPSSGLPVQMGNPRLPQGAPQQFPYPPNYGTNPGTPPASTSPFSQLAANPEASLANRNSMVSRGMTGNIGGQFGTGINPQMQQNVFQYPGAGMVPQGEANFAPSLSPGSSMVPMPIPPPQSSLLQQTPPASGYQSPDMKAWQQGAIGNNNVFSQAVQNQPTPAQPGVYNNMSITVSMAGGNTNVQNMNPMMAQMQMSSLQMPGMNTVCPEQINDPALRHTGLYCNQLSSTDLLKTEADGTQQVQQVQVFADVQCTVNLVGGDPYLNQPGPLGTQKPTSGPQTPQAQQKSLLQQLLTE
effect of a mutation on the interaction [1],effect of a mutation on the interaction [2],Variant
increasing interaction strength,increasing interaction strength,MTPNSMTENGLTAWDKPKHCPDREHDWKLVGMSEACLHRKSHSERRSTLKNEQSSPHLIQTTWTSSIFHLDHDDVNDQSVSSAQTFQTEEKKCKGYIPSYLDKDELCVVCGDKATGYHYRCITCEGCKGFFRRTIQKNLHPSYSCKYEGKCVIDKVTRNQCQECRFKKCIYVGMATDLVLDDSKRLAKRKLIEENREKRRREELQKSIGHKPEPTDEEWELIKTVTEAHVATNAQGSHWKQKRKFLPEDIGQAPIVNAPEGGKVDLEAFSHFTKIITPAITRVVDFAKKLPMFCELPCEDQIILLKGCCMEIMSLRAAVRYDPESETLTLNGEMAVTRGQLKNGGLGVVSDAIFDLGMSLSSFNLDDTEVALLQAVLLMSSDRPGLACVERIEKYQDSFLLAFEHYINYRKHHVTHFWPKLLMKVTDLQMIGACHASRFLHMKVECPTELFPPLFLEVFED [R429Q]
increasing interaction strength,increasing interaction strength,MTPNSMTENGLTAWDKPKHCPDREHDWKLVGMSEACLHRKSHSERRSTLKNEQSSPHLIQTTWTSSIFHLDHDDVNDQSVSSAQTFQTEEKKCKGYIPSYLDKDELCVVCGDKATGYHYRCITCEGCKGFFRRTIQKNLHPSYSCKYEGKCVIDKVTRNQCQECRFKKCIYVGMATDLVLDDSKRLAKRKLIEENREKRRREELQKSIGHKPEPTDEEWELIKTVTEAHVATNAQGSHWKQKRKFLPEDIGQAPIVNAPEGGKVDLEAFSHFTKIITPAITRVVDFAKKLPMFCELPCEDQIILLKGCCMEIMSLRAAVRYDPESETLTLNGEMAVTRGQLKNGGLGVVSDAIFDLGMSLSSFNLDDTEVALLQAVLLMSSDHPGLACVERIEKYQDSFLLAFEHYINYRKHHVTHFWPKLLMKVTDLRMIGACHASRFLHMKVECPTELFPPLFLEVFED [R383H]
